Test system: calmodulin (3′,5′-cyclic nucleotide phosphodiesterase activator, Sigma)

With “3′,5′-cyclic nucleotide phosphodiesterase (activator deficient from bovine brain, Sigma)” the “hydrolysis of 3′,5′-cyclic AMP to 5′-AMP during a 40 min preincubation (enzyme activity)” value was “more than 90% is destroyed in a similar reaction containing calmodulin”.
